Test results published in publication PMC10268282, “Activator-induced conformational changes regulate division-associated peptidoglycan amidases” (Proceedings of the National Academy of Sciences of the …, 2023).

Biological target: T1, AmiB hydrolytic domain from Citrobacter rodentium (Citrobacter rodentium, UniProt A0A482PQR2 190-422)
T1 construct: AmiB peptidoglycan amidase, Citrobacter rodentium, hydrolytic (enzymatic) domain, cloned without the N-terminal AmiN domain; Construct limits and tags in SI Appendix; also called AmiB enzymatic domain
T1 sequence: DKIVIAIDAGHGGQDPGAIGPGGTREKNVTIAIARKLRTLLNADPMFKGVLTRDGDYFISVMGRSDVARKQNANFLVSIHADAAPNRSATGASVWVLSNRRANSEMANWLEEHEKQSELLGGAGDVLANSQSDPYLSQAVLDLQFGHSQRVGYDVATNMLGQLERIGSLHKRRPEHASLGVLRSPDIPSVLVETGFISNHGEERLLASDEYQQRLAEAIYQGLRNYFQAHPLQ
Test: crystal structure; X-ray crystallography, 3.4 Å; molecular replacement with Alphafold models
Details: both partners purified

B1: EnvC LytM domain from Citrobacter rodentium (domain or fragment)
chain: MSRTGGLGSPRGQAYWPVRGPTLHRYGEQLQGELRWKGMVIGASEGTEVKAIADGRVILADWLQGYGLVVVVEHGKGDMSLYGYNQSALVSVGTQVRAGQPIALVGSSGGQGRPSLYFEIRRQGQAVNPQPWLGR
notes: EnvC, Citrobacter rodentium, LytM domain; Construct limits and tags in SI Appendix
  binding result: binds
